Measurements reported in paper PMC3621209, “Biochemical properties of a novel thermostable and highly xylose-tolerant β-xylosidase/α-arabinosidase from Thermotoga thermarum” (Biotechnology for Biofuels, 2013).

How the values were obtained:
[1] = molecular target: Tth xynB3 β-xylosidase from Thermotoga thermarum DSM 5069 (Thermotoga thermarum DSM 5069); assay: SEC; Superdex 200 10/30 GL column on an ÄKTA FPLC system; MW calculated from the calibration curve of the gel filtration column; oligomerization state of the purified native protein
purified protein [2] = substrate: O=[N+]([O-])c1ccc(O[C@@H]2OC[C@@H](O)[C@H](O)[C@H]2O)cc1; assay: purified protein; type: biochemical, Pseudothermotoga thermarum; details: 50 mM imidazole-potassium buffer pH 6.0, 85°C (standard conditions; text says optimal conditions)
purified protein [3] = substrate: O=[N+]([O-])c1ccc(O[C@@H]2O[C@@H](CO)[C@H](O)[C@H]2O)cc1; assay: purified protein; type: biochemical, Pseudothermotoga thermarum; details: 50 mM imidazole-potassium buffer pH 6.0, 85°C (standard conditions; text says optimal conditions)

## Tth xynB3 β-xylosidase from Thermotoga thermarum DSM 5069 (enzyme)
[1]
  stoichiometry N: 5

B1: Tth xynB3 β-xylosidase (Pseudothermotoga thermarum DSM 5069) (protein)
chain: MDLYKNPNVPAKVRAKDLLSKMTLEEKIAQLGSVWSYELLTEDGKFSVEKAKEILKHGIGQITRPGGATNFEPPEVAKLVNEIQKFLVENTRLGIPAIMHEECLAGYMGLGATIFPQPIGMASTWDPELVEKITSAIREDLRKLGITQGLAPVLDVARDPRWGRTEETFGESPYLVAKMGVAYVKGLQGSDITKGVVATGKHFAGYSASEGGKNWAPTNIPPRELREVFLYPFEAAVKEAGLLSIMNSYSEIDGIPCASNRELLTDILRRTWGFEGIVVSDYFAVDMLAAYHRMAKNKAEAAKYALEAGIDIELPKTDCYLHLKSLVENGIISEKLLDEAVLRVLTLKFLLGLFENPYAEGGSLNDHNDIALEASRKSIVLLKNNGILPLKNDVKIALVGPTANDVRNLLGDYSYLVHIKTLLENVNATTFNAPKFNLKKVEELVEAHLKKIPSILAEFAKRAKEIYYAKGCDITDPSREGFAEALEAAKKADVVVAVVGDRSGLTIECTSGESRDMANLKLPGVQEEFILELTKVGKPIVVVLVTGRPYSLKAFVNKVNAIVQLWLPGETGAQALAEVIFGQVNPSGKLPISFPASAGQIPVFHYVKPSGGRSCWHGNYVDEDVKPLFPFGHGLSYTTFSYTNLRIEQQEIPIAGSVKLKVDVQNTGEIYGEEVVQLYISREHASVTRPVKELKGFARVKLQPKETKTVVFEIHTDVLAYYDRDMKLVVEPGEYKVLIGSSAEDIRCQGNFKVVGEKRLVQDNRVFFTNTKIE
notes: full length, 774 residues (2,322 bp), pET-20b NdeI/XhoI in E. coli BL21 (DE3), Ni-NTA purified after heat treatment; theoretical monomer 85,129 Da; 5-mer in solution (422,474 Da); primers […]; (N-terminal MDLYKNPNV)
Purified protein [2]
  Km: 0.27 mM
Purified protein [3]
  Km: 0.21 mM
